To fix the notation:
B1: CD23 (receptor, UniProt P06734 48-321, looked up)
chain: DTTQSLKQLEERAARNVSQVSKNLESHHGDQMAQKSQSTQISQELEELRAEQQRLKSQDLELSWNLNGLQADLSSFKSQELNERNEASDLLERLREEVTKLRMELQVSSGFVCNTCPEKWINFQRKCYYFGKGTKQWVHARYACDDMEGQLVSIHSPEEQDFLTKHASHTGSWIGLRNLDLKGEFIWVDGSHVDYSNWAPGEPTSRSQGEDCVMMRGSGRWNDAFCDRKLGAWVCDRLATCTPPASEGSAESMGPDSRPDPDGRLPTPSAPLHS
B2: Siglec-4 (receptor, UniProt P20916 20-516, looked up)
chain: GHWGAWMPSSISAFEGTCVSIPCRFDFPDELRPAVVHGVWYFNSPYPKNYPPVVFKSRTQVVHESFQGRSRLLGDLGLRNCTLLLSNVSPELGGKYYFRGDLGGYNQYTFSEHSVLDIVNTPNIVVPPEVVAGTEVEVSCMVPDNCPELRPELSWLGHEGLGEPAVLGRLREDEGTWVQVSLLHFVPTREANGHRLGCQASFPNTTLQFEGYASMDVKYPPVIVEMNSSVEAIEGSHVSLLCGADSNPPPLLTWMRDGTVLREAVAESLLLELEEVTPAEDGVYACLAENAYGQDNRTVGLSVMYAPWKPTVNGTMVAVEGETVSILCSTQSNPDPILTIFKEKQILSTVIYESELQLELPAVSPEDDGEYWCVAENQYGQRATAFNLSVEFAPVLLLESHCAAARDTVQCLCVVKSNPEPSVAFELPSRNVTVNESEREFVYSERSGLVLTSILTLRGQAQAPPRVICTARNLYGAKSLELPFQGAHRLMWAKIGP
notes: also called MAG
B3: tetrameric human DC-SIGN (receptor, UniProt Q9NNX6 66-404, looked up)
chain: SISQEQSRQDAIYQNLTQLKAAVGELSEKSKLQEIYQELTQLKAAVGELPEKSKLQEIYQELTRLKAAVGELPEKSKLQEIYQELTWLKAAVGELPEKSKMQEIYQELTRLKAAVGELPEKSKQQEIYQELTRLKAAVGELPEKSKQQEIYQELTRLKAAVGELPEKSKQQEIYQELTQLKAAVERLCHPCPWEWTFFQGNCYFMSNSQRNWHDSITACKEVGAQLVVIKSAEEQNFLQLQSSRSNRFTWMGLSDLNQEGTWQWVDGSPLLPSFKQYWNRGEPNNVGEEDCAEFSGNGWNDDKCNLAKFWICKKSAASCSRDEEQFLSPAPATPNPPPA
B4: MMR (receptor, UniProt P22897 19-1383, looked up)
chain: LLDTRQFLIYNEDHKRCVDAVSPSAVQTAACNQDAESQKFRWVSESQIMSVAFKLCLGVPSKTDWVAITLYACDSKSEFQKWECKNDTLLGIKGEDLFFNYGNRQEKNIMLYKGSGLWSRWKIYGTTDNLCSRGYEAMYTLLGNANGATCAFPFKFENKWYADCTSAGRSDGWLWCGTTTDYDTDKLFGYCPLKFEGSESLWNKDPLTSVSYQINSKSALTWHQARKSCQQQNAELLSITEIHEQTYLTGLTSSLTSGLWIGLNSLSFNSGWQWSDRSPFRYLNWLPGSPSAEPGKSCVSLNPGKNAKWENLECVQKLGYICKKGNTTLNSFVIPSESDVPTHCPSQWWPYAGHCYKIHRDEKKIQRDALTTCRKEGGDLTSIHTIEELDFIISQLGYEPNDELWIGLNDIKIQMYFEWSDGTPVTFTKWLRGEPSHENNRQEDCVVMKGKDGYWADRGCEWPLGYICKMKSRSQGPEIVEVEKGCRKGWKKHHFYCYMIGHTLSTFAEANQTCNNENAYLTTIEDRYEQAFLTSFVGLRPEKYFWTGLSDIQTKGTFQWTIEEEVRFTHWNSDMPGRKPGCVAMRTGIAGGLWDVLKCDEKAKFVCKHWAEGVTHPPKPTTTPEPKCPEDWGASSRTSLCFKLYAKGKHEKKTWFESRDFCRALGGDLASINNKEEQQTIWRLITASGSYHKLFWLGLTYGSPSEGFTWSDGSPVSYENWAYGEPNNYQNVEYCGELKGDPTMSWNDINCEHLNNWICQIQKGQTPKPEPTPAPQDNPPVTEDGWVIYKDYQYYFSKEKETMDNARAFCKRNFGDLVSIQSESEKKFLWKYVNRNDAQSAYFIGLLISLDKKFAWMDGSKVDYVSWATGEPNFANEDENCVTMYSNSGFWNDINCGYPNAFICQRHNSSINATTVMPTMPSVPSGCKEGWNFYSNKCFKIFGFMEEERKNWQEARKACIGFGGNLVSIQNEKEQAFLTYHMKDSTFSAWTGLNDVNSEHTFLWTDGRGVHYTNWGKGYPGGRRSSLSYEDADCVVIIGGASNEAGKWMDDTCDSKRGYICQTRSDPSLTNPPATIQTDGFVKYGKSSYSLMRQKFQWHEAETYCKLHNSLIASILDPYSNAFAWLQMETSNERVWIALNSNLTDNQYTWTDKWRVRYTNWAADEPKLKSACVYLDLDGYWKTAHCNESFYFLCKRSDEIPATEPPQLPGRCPESDHTAWIPFHGHCYYIESSYTRNWGQASLECLRMGSSLVSIESAAESSFLSYRVEPLKSKTNFWIGLFRNVEGTWLWINNSPVSFVNWNTGDPSGERNDCVALHASSGFWSNIHCSSYKGYICKRPKIIDAKPTHELLTTKADTRKMDPSK
B5: clec-4d (receptor, UniProt Q8WXI8 39-215, looked up)
chain: CLVTHHNFSRCKRGTGVHKLEHHAKLKCIKEKSELKSAEGSTWNCCPIDWRAFQSNCYFPLTDNKTWAESERNCSGMGAHLMTISTEAEQNFIIQFLDRRLSYFLGLRDENAKGQWRWVDQTPFNPRRVFWHKNEPDNSQGENCVVLVYNQDKWAWNDVPCNFEASRICKIPGTTLN
B6: Siglec-3 (receptor, UniProt P20138 18-259, looked up)
chain: DPNFWLQVQESVTVQEGLCVLVPCTFFHPIPYYDKNSPVHGYWFREGAIISRDSPVATNKLDQEVQEETQGRFRLLGDPSRNNCSLSIVDARRRDNGSYFFRMERGSTKYSYKSPQLSVHVTDLTHRPKILIPGTLEPGHSKNLTCSVSWACEQGTPPIFSWLSAAPTSLGPRTTHSSVLIITPRPQDHGTNLTCQVKFAGAGVTTERTIQLNVTYVPQNPTTGIFPGDGSGKQETRAGVVH
B7: dectin-1 (receptor, UniProt Q9BXN2-2 66-201, looked up)
chain: TMGVLSSPCPPNWIIYEKSCYLFSMSLNSWDGSKRQCWQLGSNLLKIDSSNELGFIVKQVSSQPDNSFWIGLSRPQTEVPWLWEDGSTFSSNLFQIRTTATQENPSPNCVWIHVSVIYDQLCSVPSYSICEKKFSM
notes: also called dec-1
B8: dectin-2 (receptor, UniProt Q6EIG7 46-209, looked up)
chain: TYGETGKRLSELHSYHSSLTCFSEGTKVPAWGCCPASWKSFGSSCYFISSEEKVWSKSEQNCVEMGAHLVVFNTEAEQNFIVQQLNESFSYFLGLSDPQGNNNWQWIDKTPYEKNVRFWHLGEPNHSAEQCASIVFWKPTGWGWNDVICETRRNSICEMNKIYL
notes: also called dec-2
B9: clec-4a (receptor, UniProt Q9UMR7 70-237, looked up)
chain: QKYSQLLEKKTTKELVHTTLECVKKNMPVEETAWSCCPKNWKSFSSNCYFISTESASWQDSEKDCARMEAHLLVINTQEEQDFIFQNLQEESAYFVGLSDPEGQRHWQWVDQTPYNESSTFWHPREPSDPNERCVVLNFRKSPKRWGWNDVNCLGPQRSVCEMMKIHL
notes: also called DCIR
B10: Siglec-1 (receptor, UniProt Q9BZZ2 20-1641, looked up)
chain: SWGVSSPQDVQGVKGSCLLIPCIFSFPADVEVPDGITAIWYYDYSGQRQVVSHSADPKLVEARFRGRTEFMGNPEHRVCNLLLKDLQPEDSGSYNFRFEISEVNRWSDVKGTLVTVTEEPRVPTIASPVELLEGTEVDFNCSTPYVCLQEQVRLQWQGQDPARSVTFNSQKFEPTGVGHLETLHMAMSWQDHGRILRCQLSVANHRAQSEIHLQVKYAPKGVKILLSPSGRNILPGELVTLTCQVNSSYPAVSSIKWLKDGVRLQTKTGVLHLPQAAWSDAGVYTCQAENGVGSLVSPPISLHIFMAEVQVSPAGPILENQTVTLVCNTPNEAPSDLRYSWYKNHVLLEDAHSHTLRLHLATRADTGFYFCEVQNVHGSERSGPVSVVVNHPPLTPVLTAFLETQAGLVGILHCSVVSEPLATLVLSHGGHILASTSGDSDHSPRFSGTSGPNSLRLEIRDLEETDSGEYKCSATNSLGNATSTLDFHANAARLLISPAAEVVEGQAVTLSCRSGLSPTPDARFSWYLNGALLHEGPGSSLLLPAASSTDAGSYHCRARDGHSASGPSSPAVLTVLYPPRQPTFTTRLDLDAAGAGAGRRGLLLCRVDSDPPARLQLLHKDRVVATSLPSGGGCSTCGGCSPRMKVTKAPNLLRVEIHNPLLEEEGLYLCEASNALGNASTSATFNGQATVLAIAPSHTLQEGTEANLTCNVSREAAGSPANFSWFRNGVLWAQGPLETVTLLPVARTDAALYACRILTEAGAQLSTPVLLSVLYPPDRPKLSALLDMGQGHMALFICTVDSRPLALLALFHGEHLLATSLGPQVPSHGRFQAKAEANSLKLEVRELGLGDSGSYRCEATNVLGSSNTSLFFQVRGAWVQVSPSPELQEGQAVVLSCQVHTGVPEGTSYRWYRDGQPLQESTSATLRFAAITLTQAGAYHCQAQAPGSATTSLAAPISLHVSYAPRHVTLTTLMDTGPGRLGLLLCRVDSDPPAQLRLLHGDRLVASTLQGVGGPEGSSPRLHVAVAPNTLRLEIHGAMLEDEGVYICEASNTLGQASASADFDAQAVNVQVWPGATVREGQLVNLTCLVWTTHPAQLTYTWYQDGQQRLDAHSIPLPNVTVRDATSYRCGVGPPGRAPRLSRPITLDVLYAPRNLRLTYLLESHGGQLALVLCTVDSRPPAQLALSHAGRLLASSTAASVPNTLRLELRGPQPRDEGFYSCSARSPLGQANTSLELRLEGVRVILAPEAAVPEGAPITVTCADPAAHAPTLYTWYHNGRWLQEGPAASLSFLVATRAHAGAYSCQAQDAQGTRSSRPAALQVLYAPQDAVLSSFRDSRARSMAVIQCTVDSEPPAELALSHDGKVLATSSGVHSLASGTGHVQVARNALRLQVQDVPAGDDTYVCTAQNLLGSISTIGRLQVEGARVVAEPGLDVPEGAALNLSCRLLGGPGPVGNSTFAWFWNDRRLHAEPVPTLAFTHVARAQAGMYHCLAELPTGAAASAPVMLRVLYPPKTPTMMVFVEPEGGLRGILDCRVDSEPLASLTLHLGSRLVASSQPQGAPAEPHIHVLASPNALRVDIEALRPSDQGEYICSASNVLGSASTSTYFGVRALHRLHQFQQ

This assay addresses T1, IgG1-Fc (human, UniProt P01857 104-330 = IgG part).
T1 construct: domain: Fc
As to the kind of experiment: ELISA. For orientation: ELISA stands for enzyme-linked immunosorbent assay.
Turning to B1, the binding result was “no binding”.

Regarding B2, the binding result is “no binding”.

On to B3, for which the binding result is recorded as “no binding”.

For B4, the binding result is “no binding”.

As for B5, the binding result is listed as “no binding”.

With B6, the binding result was “no binding”.

Turning to B7, the binding result is on record as “no binding”.

For the molecule B8, the binding result is on record as “no binding”.

As for B9, the binding result was “no binding”.

As to B10, the binding result was “no binding”.

The values are drawn from patent publication US20210024615A1 (LIVERPOOL SCHOOL OF TROPICAL MEDICINE, published 2021).
